# Test results as given in patent publication US20240059799A1 (Pfizer, published 2024).
# T1: recombinant human TL1A (human, UniProt O95150 71-251)
# T1 construct: Homotrimeric cytokine; biotinylated with Sulfo-NHS-biotin where captured for SPR, coated unlabelled in ELISA, soluble in bioassays; also called TNFSF15
# T1 chain: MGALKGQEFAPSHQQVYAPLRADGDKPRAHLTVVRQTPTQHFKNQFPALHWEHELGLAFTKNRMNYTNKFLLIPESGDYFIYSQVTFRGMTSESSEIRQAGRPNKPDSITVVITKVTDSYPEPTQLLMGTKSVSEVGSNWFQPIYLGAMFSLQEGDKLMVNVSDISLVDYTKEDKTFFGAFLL
# T2: human IL-23 (human, UniProt P29460 23-328; Q9NPF7 20-189)
# T2 construct: Heterodimer p40/p19; Whole entries as named; also called IL-23 Human; recombinant human IL-23
# T2 sequence 1: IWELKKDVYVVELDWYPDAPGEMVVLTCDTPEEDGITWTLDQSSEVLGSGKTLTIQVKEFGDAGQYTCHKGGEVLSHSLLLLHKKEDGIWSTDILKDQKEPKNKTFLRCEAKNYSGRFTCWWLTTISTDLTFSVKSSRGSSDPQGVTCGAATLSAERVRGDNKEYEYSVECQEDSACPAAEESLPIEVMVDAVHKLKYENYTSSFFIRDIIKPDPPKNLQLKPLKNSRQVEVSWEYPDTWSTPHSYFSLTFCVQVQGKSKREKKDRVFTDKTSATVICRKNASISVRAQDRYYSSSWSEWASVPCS
# T2 sequence 2: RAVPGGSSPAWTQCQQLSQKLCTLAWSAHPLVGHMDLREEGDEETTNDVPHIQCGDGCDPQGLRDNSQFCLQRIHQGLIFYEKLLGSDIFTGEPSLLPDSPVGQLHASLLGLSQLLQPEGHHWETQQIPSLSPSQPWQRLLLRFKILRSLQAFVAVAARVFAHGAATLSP
# How the values were obtained:
# [1] = target: T1, recombinant human TL1A; assay: SPR 37 C, biotinylated human TL1A captured, bispecific injected
# Protocol: (§1) SPR was utilized to determine if the affinity constants of each arm of the bispecific variants binding human IL-23, containing the p40 subunit, and human TL1A were the same for each bispecific approach. For the analysis of the p40 binding arm, kinetic assays were conducted at 37° C. using a collection rate of 10 Hz on a Biacore™ 8 K+ instrument (GE Healthcare). An anti-human IgG antibody (anti-human Fc, GE Healthcare, 22-0648-88) was amine coupled to all four flow cells of a carboxymethylated dextran coated sensor chip (GE Healthcare,) using the manufacturer's recommended protocol. […] For the analysis of the TL1A binding arm, kinetic assays were conducted at 37° C. using a collection rate of 10 Hz on a Biacore™ T200 instrument (GE Healthcare).
# [2] = target: T2, human IL-23; assay: SPR 37 C, bispecific captured by anti-human Fc, human IL-23 injected
# Protocol: as §1
# [3] = target: T2, human IL-23; assay: SPR, bispecific held on captured biotinylated human TL1A, then human IL-23 injected (simultaneous binding)
# Protocol: SPR was used to determine if the bispecific variants could simultaneously bind TL1A and IL-23, containing the p40 domain. For this analysis, a semi-quantitative SPR method was developed using Biacore™ T200 (GE Healthcare) instrumentation. […] The bispecific was injected for 90 seconds at a concentration of 20 μg/m L, a flow rate of 50 μL/minute, and captured to a level of approximately 40-150 RU. Next, recombinant human IL-23 was injected for 60 seconds and a flow rate of 50 μL/minute at a concentration range of 0.37-15 nM.
Kd [1] [pM],koff [1] [s⁻¹],kon [1] [M⁻¹ s⁻¹],Kd [2] [pM],koff [2] [s⁻¹],kon [2] [M⁻¹ s⁻¹],Kd [3] [pM],koff [3] [s⁻¹],kon [3] [M⁻¹ s⁻¹],Binder
167,4.28e-05,256000,901,0.00156,1.73e+06,90,0.000584,5.98e+06,"p40TL1A-0001 (bispecific antibody, dual cell, EEE/RRR, LS) heavy 1: EVQLVQSGAEVKKPGESLKISCKGSGYSFTTYWLGWVRQMPGKGLDWIGIMSPVDSDIRYSPSFQGQVTMSVDKSITTAYLQWNSLKASDTAMYYCARRRPGQGYFDFWGQGTLVTVSSASTKGPSVFPLAPSSKSTSGGTAALGCLVKDYFPEPVTVSWNSGALTSGVHTFPAVLQSSGLYSLSSVVTVPSSSLGTQTYICNVNHKPSNTKVDKKVEPKSCRKTHTCPRCPAPEAAGAPSVFLFPPKPKDTLMISRTPEVTCVVVDVSHEDPEVKFNWYVDGVEVHNAKTKPREEQYNSTYRVVSVLTVLHQDWLNGKEYKCKVSNKALPAPIEKTISKAKGQPREPQVYTLPPSREEMTKNQVSLTCLVKGFYPSDIAVEWESNGQPENNYKTTPPVLDSDGSFFLYSRLTVDKSRWQQGNVFSCSVLHEALHSHYTQKSLSLSPGK light 1: not shown heavy 2: QVQLVQSGAEVKKPGASVKVSCKASGYDYTYYGISWVRQAPGQGLEWMGWISTYNTGTHYAPSLQGRVTMTTDTSTSTAYMELRSLRSDDTAVYYCARESYYGSGAFRGGMDVWGQGTTVTVSSASTKGPSVFPLAPSSKSTSGGTAALGCLVKDYFPEPVTVSWNSGALTSGVHTFPAVLQSSGLYSLSSVVTVPSSSLGTQTYICNVNHKPSNTKVDKKVEPKSCEKTHTCPECPAPEAAGAPSVFLFPPKPKDTLMISRTPEVTCVVVDVSHEDPEVKFNWYVDGVEVHNAKTKPREEQYNSTYRVVSVLTVLHQDWLNGKEYKCKVSNKALPAPIEKTISKAKGQPREPQVYTLPPSREEMTKNQVSLTCEVKGFYPSDIAVEWESNGQPENNYKTTPPVLDSDGSFFLYSKLTVDKSRWQQGNVFSCSVLHEALHSHYTQKSLSLSPGK light 2: not shown"
254,6.15e-05,243000,567,0.00109,1.92e+06,78.8,0.000546,6.93e+06,"p40TL1A-0032 (bispecific antibody, single cell, KiH, S1-S1rev, LS) heavy 1: EVQLVQSGAEVKKPGESLKISCKGSGYSFTTYWLGWVRQMPGKGLDWIGIMSPVDSDIRYSPSFQGQVTMSVDKSITTAYLQWNSLKASDTAMYYCARRRPGQGYFDFWGQGTLVTVSSASTKGPSVFPKAPSSKSTSGGTAALGCLVKDYFPEPVTVSWNSGALTSGVHTFPAVLQSSGLYSLSSSVTVPSSSLGTQTYICNVNHKPSNTKVDKKVEPKSCDKTHTCPPCPAPEAAGAPSVFLFPPKPKDTLMISRTPEVTCVVVDVSHEDPEVKFNWYVDGVEVHNAKTKPREEQYNSTYRVVSVLTVLHQDWLNGKEYKCKVSNKALPAPIEKTISKAKGQPREPQVCTLPPSREEMTKNQVSLWCLVKGFYPSDIAVEWESNGQPENNYKTTPPVLDSDGSFFLYSKLTVDKSRWQQGNVFSCSVLHEALHSHYTQKSLSLSPGK light 1: DIQMTQSPSSLSASVGDRVTITCRASQGISSWLAWYQQKPEKAPKSLIYAASSLQSGVPSRFSGSGSGTDFTLTISSLQPEDFATYYCQQYNIYPYTFGQGTKLEIKRTVAAPSVFIFPPSDEQLKSGTASVSCLLNNFYPREAKVQWKVDNALQSGNSQESVTEQDSKDSTYSLDSTLTLSKADYEKHKVYACEVTHQGLSSPVTKSFNRGEC heavy 2: QVQLVQSGAEVKKPGASVKVSCKASGYDYTYYGISWVRQAPGQGLEWMGWISTYNTGTHYAPSLQGRVTMTTDTSTSTAYMELRSLRSDDTAVYYCARESYYGSGAFRGGMDVWGQGTTVTVSSASTKGPSVFPEAPSSKSTSGGTAALGCLVKDYFPEPVTVSWNSGALTSGVHTFPAVLQSSGLYSLGSVVTVPSSSLGTQTYICNVNHKPSNTKVDKKVEPKSCDKTHTCPPCPAPEAAGAPSVFLFPPKPKDTLMISRTPEVTCVVVDVSHEDPEVKFNWYVDGVEVHNAKTKPREEQYNSTYRVVSVLTVLHQDWLNGKEYKCKVSNKALPAPIEKTISKAKGQPREPQVYTLPPCREEMTKNQVSLSCAVKGFYPSDIAVEWESNGQPENNYKTTPPVLDSDGSFFLVSKLTVDKSRWQQGNVFSCSVLHEALHSHYTQKSLSLSPGK light 2: not shown"
183,5.6e-05,307000,859,0.00152,1.77e+06,73.8,0.000524,7.11e+06,"p40TL1A-0021 (bispecific antibody, dual cell, EE/RR, LS) heavy 1: EVQLVQSGAEVKKPGESLKISCKGSGYSFTTYWLGWVRQMPGKGLDWIGIMSPVDSDIRYSPSFQGQVTMSVDKSITTAYLQWNSLKASDTAMYYCARRRPGQGYFDFWGQGTLVTVSSASTKGPSVFPLAPSSKSTSGGTAALGCLVKDYFPEPVTVSWNSGALTSGVHTFPAVLQSSGLYSLSSVVTVPSSSLGTQTYICNVNHKPSNTKVDKKVEPKSCRKTHTCPPCPAPEAAGAPSVFLFPPKPKDTLMISRTPEVTCVVVDVSHEDPEVKFNWYVDGVEVHNAKTKPREEQYNSTYRVVSVLTVLHQDWLNGKEYKCKVSNKALPAPIEKTISKAKGQPREPQVYTLPPSREEMTKNQVSLTCLVKGFYPSDIAVEWESNGQPENNYKTTPPVLDSDGSFFLYSRLTVDKSRWQQGNVFSCSVLHEALHSHYTQKSLSLSPGK light 1: not shown heavy 2: QVQLVQSGAEVKKPGASVKVSCKASGYDYTYYGISWVRQAPGQGLEWMGWISTYNTGTHYAPSLQGRVTMTTDTSTSTAYMELRSLRSDDTAVYYCARESYYGSGAFRGGMDVWGQGTTVTVSSASTKGPSVFPLAPSSKSTSGGTAALGCLVKDYFPEPVTVSWNSGALTSGVHTFPAVLQSSGLYSLSSVVTVPSSSLGTQTYICNVNHKPSNTKVDKKVEPKSCEKTHTCPPCPAPEAAGAPSVFLFPPKPKDTLMISRTPEVTCVVVDVSHEDPEVKFNWYVDGVEVHNAKTKPREEQYNSTYRVVSVLTVLHQDWLNGKEYKCKVSNKALPAPIEKTISKAKGQPREPQVYTLPPSREEMTKNQVSLTCEVKGFYPSDIAVEWESNGQPENNYKTTPPVLDSDGSFFLYSKLTVDKSRWQQGNVFSCSVLHEALHSHYTQKSLSLSPGK light 2: not shown"
217,4.87e-05,224000,659,0.00121,1.83e+06,94.4,0.000521,5.51e+06,"p40TL1A-0018 (bispecific antibody, human IgG1, kappa, dual cell, KiH without Cys in CH3, LS) heavy 1: EVQLVQSGAEVKKPGESLKISCKGSGYSFTTYWLGWVRQMPGKGLDWIGIMSPVDSDIRYSPSFQGQVTMSVDKSITTAYLQWNSLKASDTAMYYCARRRPGQGYFDFWGQGTLVTVSSASTKGPSVFPLAPSSKSTSGGTAALGCLVKDYFPEPVTVSWNSGALTSGVHTFPAVLQSSGLYSLSSVVTVPSSSLGTQTYICNVNHKPSNTKVDKKVEPKSCDKTHTCPPCPAPEAAGAPSVFLFPPKPKDTLMISRTPEVTCVVVDVSHEDPEVKFNWYVDGVEVHNAKTKPREEQYNSTYRVVSVLTVLHQDWLNGKEYKCKVSNKALPAPIEKTISKAKGQPREPQVYTLPPSREEMTKNQVSLWCLVKGFYPSDIAVEWESNGQPENNYKTTPPVLDSDGSFFLYSKLTVDKSRWQQGNVFSCSVLHEALHSHYTQKSLSLSPGK light 1: not shown heavy 2: QVQLVQSGAEVKKPGASVKVSCKASGYDYTYYGISWVRQAPGQGLEWMGWISTYNTGTHYAPSLQGRVTMTTDTSTSTAYMELRSLRSDDTAVYYCARESYYGSGAFRGGMDVWGQGTTVTVSSASTKGPSVFPLAPSSKSTSGGTAALGCLVKDYFPEPVTVSWNSGALTSGVHTFPAVLQSSGLYSLSSVVTVPSSSLGTQTYICNVNHKPSNTKVDKKVEPKSCDKTHTCPPCPAPEAAGAPSVFLFPPKPKDTLMISRTPEVTCVVVDVSHEDPEVKFNWYVDGVEVHNAKTKPREEQYNSTYRVVSVLTVLHQDWLNGKEYKCKVSNKALPAPIEKTISKAKGQPREPQVYTLPPSREEMTKNQVSLSCAVKGFYPSDIAVEWESNGQPENNYKTTPPVLDSDGSFFLVSKLTVDKSRWQQGNVFSCSVLHEALHSHYTQKSLSLSPGK light 2: not shown"
